Tests used:
[1] = target: T1, interaction between the RAF-GAD and RAS-GBD proteins (Homo sapiens, UniProt P04049); assay: Peptide expressed from pPEV1 tested for inhibition of the RAS-RAF interaction in yeast mating two-hybrid assay; assay type: cell-based
T1 construct: expressed in transfected cells; host or cells: Saccharomyces cerevisiae diploids of YULH-RAFINT (RAF-GAD integrated at MER2) x N106' (RAS-GBD plasmid)
Description: These oligonucleotides also introduced unique restriction sites (EagI and SphI) that facilitate the cloning of the amplified DNA fragments into the integration vector R1400. The R1400 plasmid vector consists of two yeast genes LYS2 (Fleig et al., 1986, Gene 46:237-245) and MER2 (Engebrecht et al., 1991, Cell 66:1257-1268). The LYS2 marker is used for the selection of integration events, while, the MER2 gene is used for integration of the entire plasmid into the yeast genome. MER2 is a gene that is not essential for the vegetative growth of yeast. The RAF-GAD gene was cloned into the R1400 plasmid to yield RAF-INT. This plasmid was then digested with the restriction enzyme PstI that has a site in the MER2 gene. The restriction was done in a partial manner as there are other PstI sites in the plasmid vector. The restriction digestion was allowed to proceed only for 1 minute and then the enzyme was inactivated by extracting with phenol-chloroform and the DNA was then precipitated. This linearized DNA was used to transform the YULH strain to yield YULH-RAFINT. Integration occurs at the MER2 locus, and the integration events were selected by growing the transformants on media lacking lysine. The N106′ strain was transformed with the RAS-GBD plasmid to form N106′ (RAS-GBD). The proper functioning of the RAF-GAD fusion was confirmed by mating YULH-RAFINT and N106′ (RAS-GBD) and observing the resultant activation of the URA3 and the lacZ Reporter Genes.
The PEVs serve to express and localize peptides (or proteins) in the nucleus of the yeast cell where their potential to inhibit specific protein-protein interactions is tested. This inhibitory activity of the peptides is monitored by their ability to inhibit the activity of the reporter genes like URA3, HIS3 and lacZ.
The PEVs comprise the following operably linked components (FIG. 7): an ADC1 promoter (ADC1-P) for supporting transcription in yeast (Ammerer, 1983, Meth. Enymol. 101:192-201); a nucleotide sequence encoding an SV40 Nuclear Localization Signal (NLS) for transporting the peptide to the nucleus (Dingwal and Laskey, 1991, Trends. Biochem. Sci. 16:478); followed by a stop codon (UAG) for terminating translation; means for inserting a DNA sequence encoding a candidate inhibitor peptide into the PEV in such a manner that the candidate inhibitor peptide is capable of being expressed as part of a fusion protein containing the NLS; and an ADC1 transcription termination signal. The NLS from SV40 large T comprises a 7 amino acid stretch (PKKKRKV) (SEQ ID NO:20) that has been successfully used in targeting proteins into the yeast nucleus (Benton et al., 1990, Mol. Cell. Biol. 10:353-360). […]

[2] = target: T2, YULH(R4-GBD) and N106′ (FKBP-12-GAD) interacting hybrid proteins (Homo sapiens, UniProt P62942); assay: 5-FOA assay identifying cells containing a non-genetically-encoded inhibitor of protein-protein interaction; assay type: cell-based, yeast
T2 construct: These primers flank the entire coding region of the FKBP-12 protein; expressed in transfected cells; host or cells: Saccharomyces cerevisiae YULH(R4-GBD) x N106'(FKBP-12-GAD)
Procedure: The above method described for the isolation of inhibitor peptides can also be used to screen and isolate inhibitors that are not genetically encoded. In other contexts, for example, a yeast-based transcription-inhibition assay has been used to screen for inhibitors of the HIV-1 proteinase (Murray et al., 1993, Gene 134:123-128). The reporter strains YULH(R4-GBD) and N106′ (FKBP-12-GAD), that harbor the reporter gene-systems and the two interacting proteins are grown in a 96-well format with each well containing 200 μl of media that selects for both the GBD and GAD plasmids (SC-LEU-TRP).
After a growth period (24-36 hours) that is sufficient for early log-phase growth (a cell density of 1×10^7 cells/ml), the cells are exposed to an RNA inhibitor at a concentration of 100 nM for 1-2 hours. This RNA inhibitor is of the sequence 5′-[…]-3′ (SEQ ID NO:35). The pyrimidines in this RNA are modified with 2′-amino-2-deoxypyrimidines that causes the RNA to be resistant to nucleases. This RNA binds with high affinity to VEGF (Green et al., 1995, Current Biol. 2:683-695). […]
In the absence of the RNA inhibitor, cells are not able to grow in 5-FOA. […] The activity of the lacZ gene is determined by assaying the β-galactosidase activity of the cells as mentioned in Section 6.1.11. […]

VEGF = target: T3, VEGF (Homo sapiens, UniProt P15692); details: cited from earlier work
T3 sequence (P15692 207-395): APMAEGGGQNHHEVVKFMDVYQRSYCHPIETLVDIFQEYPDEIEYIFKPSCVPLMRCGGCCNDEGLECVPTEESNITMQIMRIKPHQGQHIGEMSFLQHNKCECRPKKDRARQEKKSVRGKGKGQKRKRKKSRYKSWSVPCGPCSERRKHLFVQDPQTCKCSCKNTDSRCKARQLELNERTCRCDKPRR

T2 sequence (P62942 whole entry): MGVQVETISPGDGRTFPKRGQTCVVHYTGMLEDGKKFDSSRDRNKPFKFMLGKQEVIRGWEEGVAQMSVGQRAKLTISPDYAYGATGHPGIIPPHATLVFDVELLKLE

Substance	β-galactosidase activity (lacZ reporter) of diploids ([1]; YULH2RAS (pPEVRAS-E) mated to N106′(RAS-GBD), control diploids are LACZ+)	growth of diploids on media lacking uracil (URA3 reporter) ([1]; YULH2RAS (pPEVRAS-E) mated to N106′(RAS-GBD), control diploids are URA+)	growth of diploids on medium containing 5-FOA ([1]; YULH2RAS (pPEVRAS-E) mated to N106′(RAS-GBD), control diploids unable to grow)	inhibition of the protein-protein interaction ([1]; peptide expressed in the yeast nucleus from pPEV1)	growth in SC-TRP-LEU in the absence of 5-FOA, in the presence of the inhibitor ([2]; RNA inhibitor at 100 nM)	growth in media containing 5-FOA and uracil ([2]; RNA inhibitor at 100 nanomolar, without inhibitor cells are not able to grow in 5-FOA)	binding affinity to VEGF (VEGF)
RAS effector peptide: RAS amino acids 17-40, from a region important for interaction with RAF, expressed from pPEVRAS-E (SALTIQLIQNHFVDEYDPTIEDSY; UniProt P01112 17-40, looked up, fragment)	negative for β-galactosidase activity	unable to grow on media lacking uracil	grow on medium containing 5-FOA	inhibits the interaction	–	–	–
5′-CCCUGAUGGUAGACCGGGGUG-3′ (chemistry not fully specified) [RNA inhibitor]	–	–	–	–	able to grow	Growth is evident	high affinity

From patent US6410239B1, “Identification and comparison of protein—protein interactions that occur in populations and identification of inhibitors of these interactors” (CuraGen Corporation, priority 1996, dated 2002)
